From US20100167357A1 (CELLECTIS, published 2010)

Assays:
[1] = target: the molecule itself; test: analytical ultracentrifugation of the individually expressed protein (monomer plus higher aggregates seen)
Description: To check the oligomeric status of the purified designed enzymes, their size profiles was measured by analytical ultracentrifugation (FIG. 6). In the case of individually-expressed A1, A2, B3 and B4 proteins, the appearance of the expected monomeric enzyme was observed. However, higher molecular weight aggregates were also detected, including trimers and tetramers (FIG. 6B; only KTG-A2 and QAN-B3 are shown, although similar results were obtained with the other designs). Therefore the designed enzymes were indeed unable to homodimerise, and this may have affected their stability and aggregation properties during purification.

[2] = target: T1, QAN-B3 (QAN with K7E, F54G, L58M, K96E), His tag removed, co-expressed from pCDFDuet1
T1 chain: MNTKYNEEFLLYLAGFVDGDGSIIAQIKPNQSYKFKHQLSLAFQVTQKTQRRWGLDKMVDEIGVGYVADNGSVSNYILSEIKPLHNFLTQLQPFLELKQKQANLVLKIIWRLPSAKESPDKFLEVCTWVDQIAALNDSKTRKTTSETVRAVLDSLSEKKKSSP

[3] = target: T2, KTG-B3 (KTG with the B3 interface: K7E, F54G, L58M, K96E)
T2 chain: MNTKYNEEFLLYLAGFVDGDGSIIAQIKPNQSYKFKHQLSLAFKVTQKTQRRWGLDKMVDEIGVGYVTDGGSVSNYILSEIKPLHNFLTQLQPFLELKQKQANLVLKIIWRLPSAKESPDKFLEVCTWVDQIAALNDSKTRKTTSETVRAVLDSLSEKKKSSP

[4] = target: T3, M3 E8K K96E
T3 chain: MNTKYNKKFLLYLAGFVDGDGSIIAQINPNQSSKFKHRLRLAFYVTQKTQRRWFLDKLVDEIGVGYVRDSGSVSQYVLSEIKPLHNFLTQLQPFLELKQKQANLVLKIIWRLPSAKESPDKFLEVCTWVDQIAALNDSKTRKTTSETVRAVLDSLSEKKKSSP

[5] = target: T4, M3 K7E K96E
T4 chain: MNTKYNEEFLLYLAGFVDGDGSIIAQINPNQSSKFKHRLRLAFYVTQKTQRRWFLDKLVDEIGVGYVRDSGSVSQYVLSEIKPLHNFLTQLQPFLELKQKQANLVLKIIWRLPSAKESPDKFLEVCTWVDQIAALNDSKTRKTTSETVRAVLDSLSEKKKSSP

[6] = target: T5, R51D RAG1.10.3 cutter (M3 R51D)
T5 chain: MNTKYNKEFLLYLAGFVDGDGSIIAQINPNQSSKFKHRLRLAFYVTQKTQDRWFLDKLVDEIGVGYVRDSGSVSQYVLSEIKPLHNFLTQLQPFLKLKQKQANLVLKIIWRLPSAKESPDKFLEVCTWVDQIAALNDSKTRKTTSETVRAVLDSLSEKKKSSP

[7] = target: T6, M3 K7E E61R
T6 chain: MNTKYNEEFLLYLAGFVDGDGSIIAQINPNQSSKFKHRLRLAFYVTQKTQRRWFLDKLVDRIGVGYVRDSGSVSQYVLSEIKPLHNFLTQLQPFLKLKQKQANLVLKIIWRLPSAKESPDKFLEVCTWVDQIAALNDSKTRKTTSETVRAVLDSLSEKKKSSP

[8] = target: T7, M3 E8K E61R
T7 chain: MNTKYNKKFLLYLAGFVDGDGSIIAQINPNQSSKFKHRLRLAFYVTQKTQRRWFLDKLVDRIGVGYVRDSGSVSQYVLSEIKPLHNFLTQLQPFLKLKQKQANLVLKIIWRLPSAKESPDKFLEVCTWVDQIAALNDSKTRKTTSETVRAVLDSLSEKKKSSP

[9] = target: T8, D137R RAG1.10.3 cutter (M3 D137R)
T8 chain: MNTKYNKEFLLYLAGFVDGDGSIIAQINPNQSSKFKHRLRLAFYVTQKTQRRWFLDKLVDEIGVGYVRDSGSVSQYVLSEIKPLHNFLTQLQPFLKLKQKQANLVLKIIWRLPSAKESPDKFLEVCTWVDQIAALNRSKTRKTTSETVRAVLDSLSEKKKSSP

B1: D137R RAG1.10.3 cutter (M3 D137R) (protein)
chain: MNTKYNKEFLLYLAGFVDGDGSIIAQINPNQSSKFKHRLRLAFYVTQKTQRRWFLDKLVDEIGVGYVRDSGSVSQYVLSEIKPLHNFLTQLQPFLKLKQKQANLVLKIIWRLPSAKESPDKFLEVCTWVDQIAALNRSKTRKTTSETVRAVLDSLSEKKKSSP
With B1 the “cleavage of the palindromic RAG1.10.3 target, direct repeat recombination (LacZ) assay in yeast” value was “no cleavage of the RAG1.10.2 and RAG1.10.3 targets was visible”.

B2: QAN-B4 (QAN with the B4 interface: B3 mutations K7E, F54G, L58M, K96E plus Glycine at position 97) (enzyme)
chain: MANTKYNEEFLLYLAGFVDGDGSIIAQIKPNQSYKFKHQLSLTFQVTQKTQRRWGLDKMVDEIGVGYVADNGSVSNYILSEIKPLHNFLTQLQPFLEGKQKQANLVLKIIEQLPSAKESPDKFLEVCTWVDQIAALNDSKTRKTTSETVRAVLDSLSEKKKSSPAAALEHHHHHH
notes: Purified by His tag when expressed alone
B2: no binding [1].

B3: KTG-A2 (KTG with K7R, E8R, F54W, E61R, K96R, L97F) (enzyme)
chain: MNTKYNRRFLLYLAGFVDGDGSIIAQIKPNQSYKFKHQLSLAFKVTQKTQRRWWLDKLVDRIGVGYVTDGGSVSNYILSEIKPLHNFLTQLQPFLRFKQKQANLVLKIIWRLPSAKESPDKFLEVCTWVDQIAALNDSKTRKTTSETVRAVLDSLSEKKKSSP
notes: Designed monomer; Expressed with a His tag from pET-series plasmid pCLS1211
In the case of B3, the “in vitro cleavage of linearized plasmid DNA targets (agarose gel)” value [2] is reported as “clear specific cleavage of the heterodimer DNA target (gtt/agg) and barely of the homodimeric targets (cct/agg and gtt/aac; FIG. 7A) was observed” and the binding result [1] is reported as “no binding”.

B4: QAN-A1 (QAN with the A1 interface: K7R, E8R, E61R, K96R, L97F; Phe kept at position 54) (enzyme)
chain: MNTKYNRRFLLYLAGFVDGDGSIIAQIKPNQSYKFKHQLSLAFQVTQKTQRRWFLDKLVDRIGVGYVADNGSVSNYILSEIKPLHNFLTQLQPFLRFKQKQANLVLKIIWRLPSAKESPDKFLEVCTWVDQIAALNDSKTRKTTSETVRAVLDSLSEKKKSSP
notes: as for B2
For B4, the “in vitro cleavage of linearized plasmid DNA targets (agarose gel)” value [3] was “specific cleavage of the heterodimer, but at reduced level compared to the KTG-A2/QAN-B3 combination” and the binding result [1] was “no binding”.

B5: KTG-B3 (KTG with the B3 interface: K7E, F54G, L58M, K96E) (enzyme)
chain: MNTKYNEEFLLYLAGFVDGDGSIIAQIKPNQSYKFKHQLSLAFKVTQKTQRRWGLDKMVDEIGVGYVTDGGSVSNYILSEIKPLHNFLTQLQPFLELKQKQANLVLKIIWRLPSAKESPDKFLEVCTWVDQIAALNDSKTRKTTSETVRAVLDSLSEKKKSSP
notes: as for B2
B5: no binding [1].

B6: QAN-B3 (QAN with K7E, F54G, L58M, K96E), individually expressed and purified (enzyme)
chain: MNTKYNEEFLLYLAGFVDGDGSIIAQIKPNQSYKFKHQLSLAFQVTQKTQRRWGLDKMVDEIGVGYVADNGSVSNYILSEIKPLHNFLTQLQPFLELKQKQANLVLKIIWRLPSAKESPDKFLEVCTWVDQIAALNDSKTRKTTSETVRAVLDSLSEKKKSSP
notes: Designed monomer; His-tagged form from pET-series plasmid pCLS1214, purified on a nickel column
B6: no binding [1].

B7: M2 K7E E61R (protein)
chain: MNTKYNEEFLLYLAGFVDGDGSIIAQIKPRQSNKFKHQLSLAFAVTQKTQRRWFLDKLVDRIGVGYVYDSGSVSDYRLSEIKPLHNFLTQLQPFLKLKQKQANLVLKIIWRLPSAKESPDKFLEVCTWVDQIAALNDSKTRKTTSETVRAVLDSLSEKKKSSP
For B7, the “cleavage of the RAG1.10 target, yeast screening assay (OH1)” value [4] was “They have a strong cleavage activity toward the RAG1.10 target equivalent to the M2/M3 heterodimer activity, while they display almost non detectable homodimeric activities”.

B8: M2 E8K E61R (protein)
chain: MNTKYNKKFLLYLAGFVDGDGSIIAQIKPRQSNKFKHQLSLAFAVTQKTQRRWFLDKLVDRIGVGYVYDSGSVSDYRLSEIKPLHNFLTQLQPFLKLKQKQANLVLKIIWRLPSAKESPDKFLEVCTWVDQIAALNDSKTRKTTSETVRAVLDSLSEKKKSSP
For B8, the “cleavage of the RAG1.10 target, yeast screening assay (OH2)” value [5] was “They have a strong cleavage activity toward the RAG1.10 target equivalent to the M2/M3 heterodimer activity, while they display almost non detectable homodimeric activities”.

B9: D137R RAG1.10.2 cutter (M2 D137R) (protein)
chain: MNTKYNKEFLLYLAGFVDGDGSIIAQIKPRQSNKFKHQLSLAFAVTQKTQRRWFLDKLVDEIGVGYVYDSGSVSDYRLSEIKPLHNFLTQLQPFLKLKQKQANLVLKIIWRLPSAKESPDKFLEVCTWVDQIAALNRSKTRKTTSETVRAVLDSLSEKKKSSP
For B9, the “cleavage of the RAG1.10 target, direct repeat recombination (LacZ) assay in yeast” value [6] was “leads also to the formation of an obligatory heterodimer, which is yet less active than the precedent one on the RAG1.10 target”.

B10: M2 E8K K96E (protein)
chain: MNTKYNKKFLLYLAGFVDGDGSIIAQIKPRQSNKFKHQLSLAFAVTQKTQRRWFLDKLVDEIGVGYVYDSGSVSDYRLSEIKPLHNFLTQLQPFLELKQKQANLVLKIIWRLPSAKESPDKFLEVCTWVDQIAALNDSKTRKTTSETVRAVLDSLSEKKKSSP
For B10, the “cleavage of the RAG1.10 target, yeast screening assay (OH4)” value [7] was “They have a strong cleavage activity toward the RAG1.10 target equivalent to the M2/M3 heterodimer activity, while they display almost non detectable homodimeric activities”.

B11: M2 K7E K96E (protein)
chain: MNTKYNEEFLLYLAGFVDGDGSIIAQIKPRQSNKFKHQLSLAFAVTQKTQRRWFLDKLVDEIGVGYVYDSGSVSDYRLSEIKPLHNFLTQLQPFLELKQKQANLVLKIIWRLPSAKESPDKFLEVCTWVDQIAALNDSKTRKTTSETVRAVLDSLSEKKKSSP
In the case of B11, the “cleavage of the RAG1.10 target, yeast screening assay (OH3)” value [8] is reported as “They have a strong cleavage activity toward the RAG1.10 target equivalent to the M2/M3 heterodimer activity, while they display almost non detectable homodimeric activities”.

B12: R51D RAG1.10.2 cutter (M2 R51D) (protein)
chain: MNTKYNKEFLLYLAGFVDGDGSIIAQIKPRQSNKFKHQLSLAFAVTQKTQDRWFLDKLVDEIGVGYVYDSGSVSDYRLSEIKPLHNFLTQLQPFLKLKQKQANLVLKIIWRLPSAKESPDKFLEVCTWVDQIAALNDSKTRKTTSETVRAVLDSLSEKKKSSP
With B12 the “cleavage of the palindromic RAG1.10.2 target, direct repeat recombination (LacZ) assay in yeast” value was “no cleavage of the RAG1.10.2 and RAG1.10.3 targets was visible” and the “cleavage of the RAG1.10 target, direct repeat recombination (LacZ) assay in yeast” value [9] was “resulted in an efficient cleavage of the RAG1.10 target while no cleavage of the RAG1.10.2 and RAG1.10.3 targets was visible”.
